This is an account of results in US20210079109A1 (Regeneron, published 2021).

T1: human CD63 (human, UniProt P08962 2-238)
T1 construct: stably transfected in NIH3T3/hCD63; The cell line is named under assay; also called hCD63
T1 sequence: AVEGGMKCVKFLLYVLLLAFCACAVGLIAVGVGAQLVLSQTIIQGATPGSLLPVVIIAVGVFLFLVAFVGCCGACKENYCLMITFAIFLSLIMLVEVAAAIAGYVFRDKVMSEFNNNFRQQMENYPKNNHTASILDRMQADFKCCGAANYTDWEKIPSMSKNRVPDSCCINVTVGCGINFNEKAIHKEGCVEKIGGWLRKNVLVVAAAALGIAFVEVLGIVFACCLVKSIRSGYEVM

B1: H4H11997P2 (antibody, V domains shown)
VH: QVQLVESGGGLVKPGGSLRLSCAASGFTFSDYYMNWIRQAPGKGLEWITYINNGGYTKYYADSVKGRFIISRDNTKNSVHLQMNSLRAEDTAVYYCVRDPRMYYGMDVWGQGTTVTVSS
VL: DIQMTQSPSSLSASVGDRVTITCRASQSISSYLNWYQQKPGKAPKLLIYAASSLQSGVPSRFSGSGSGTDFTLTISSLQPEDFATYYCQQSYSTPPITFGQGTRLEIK
B2: H4H11990P2 (antibody, V domains shown)
VH: QVQLVESGGGLVKPGGSLRLSCATSGFTFTDYFMNWIRQAPGKGLEWVSYISNSGSIRYYADSVRGRFSISRDNAKNSLYLQMSSLRADDTAVYYCVRDPRQIYGMDVWGQGTTVTVSS
VL: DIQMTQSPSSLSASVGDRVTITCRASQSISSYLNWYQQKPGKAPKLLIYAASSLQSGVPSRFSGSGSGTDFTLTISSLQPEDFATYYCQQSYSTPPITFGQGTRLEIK
B3: H4H11992P2 (antibody, V domains shown)
VH: QVQLVESGGGLVKPRGSLRLSCAASGFIFDDYFMNWIRQAPGKGLEWVSYISNSGNTKYYADSVKGRFTISRDNAYNSLYLQMNSLRAEDTAVYYCVRDPRSYYGMDVWGQGTTVTVSS
VL: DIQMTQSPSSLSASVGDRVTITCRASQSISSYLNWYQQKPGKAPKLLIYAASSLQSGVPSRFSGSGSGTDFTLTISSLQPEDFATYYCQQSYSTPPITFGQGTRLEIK
B4: H4H11993P2 (antibody, V domains shown)
VH: QVQLVESGGGLVKPGGSLRLSCAASGFTFSDYYMNWIRQAPGKGLEWVSYINGGGYTMYYADSVKGRFTISRDNAKNSLYLQMNSLRAEDTAVYYCARDRRTTVSIDYWGQGTLVTVSS
VL: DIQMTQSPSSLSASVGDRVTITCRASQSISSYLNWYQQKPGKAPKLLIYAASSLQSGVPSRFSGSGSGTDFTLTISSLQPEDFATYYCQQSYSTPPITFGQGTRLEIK
B5: H4H11995P2 (antibody, V domains shown)
VH: EVQLVESGGALVQPGRSLRLSCAASGFTFDDYAMHWVRQAPGKGLEWVSGISWNSGTMGYADSVKGRFTISRDNAKKSLYLQMNSLRAEDTALYYCGKGLLHQWEVLDYWGQGTLVTVSS
VL: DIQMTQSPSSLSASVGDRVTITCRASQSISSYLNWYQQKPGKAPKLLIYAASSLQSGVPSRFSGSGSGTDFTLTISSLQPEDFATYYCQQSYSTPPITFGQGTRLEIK

T3 sequence (chain, as listed by the source limits assumed): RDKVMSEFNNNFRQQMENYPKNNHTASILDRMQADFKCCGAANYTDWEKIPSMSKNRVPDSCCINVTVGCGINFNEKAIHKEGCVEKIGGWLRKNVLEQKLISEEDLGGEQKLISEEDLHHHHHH

One experiment has as its target T1, human CD63. As to the kind of experiment: ECL, U87MG cells. The protocol: (§1) LNCAP cells were determined to have a lower human CD63 copy number than U87MG cells. Non-transfected NIH3T3 cells, which have no detectable expression of human CD63 by fluorescence activated cell sorting (FACS), were included as a negative control.
(§2) Briefly, cell lines were rinsed once in PBS buffer without Ca²⁺/Mg²⁺ and incubated for 10 minutes at 37° C. with Enzyme Free Cell Dissociation Solution (Millipore, Cat #S-004-C) to detach the cells. Cells were then washed once with PBS with Ca²⁺/Mg²⁺ and counted with a Cellometer™ Auto T4 cell counter (Nexcelom Bioscience, LLC). Approximately 2.0×10⁴ NIH3T3/hCD63, LNCAP, U87MG or NIH3T3 cells were seeded separately onto 96-well carbon electrode plates […]) and were then incubated for one hour at 37° C. Nonspecific binding sites were blocked with 2% BSA (w/v) in PBS with Ca²⁺/Mg²⁺ for one hour at room temperature (RT). Solutions containing anti-CD63 antibodies or isotype control antibodies at a range of concentrations (1.7 pM to 100 nM) in 0.5% BSA (w/v) in PBS with Ca²⁺/Mg²⁺, as well as control buffer alone, were then added in duplicate to the plate-bound NIH3T3/hCD63, LNCAP, U87MG or NIH3T3 cells and incubated for one hour at RT. Plates were subsequently washed to remove unbound antibodies using an AquaMax2000 plate washer with a cell washing head (MDS Analytical Technologies). […] Plates were washed and then incubated with Read Buffer (MSD, Cat #R92TD-2) according to the manufacturer's instructions. Luminescent signals were measured using a SECTOR Imager (MSD).
Regarding B1, the EC50 (usually the concentration that produces a half-maximal response) was determined as 1.7 nM and the “binding ratio at 3.7 nM vs NIH3T3” value stood at 99 fold.
The corresponding values for B2 are 4.8 nM and 66 fold.
The like results for B3 were, in that order, 5.5 nM and 33 fold.
Regarding B4, the EC50 turned out to be 17 nM and the “binding ratio at 3.7 nM vs NIH3T3” value is 62 fold.
The like results for B5 were, in that order, 13 nM and 61 fold.

The target in another experiment is T2, recombinant human CD63 extracellular loop 2 expressed with a C-terminal human Fc tag (human).
T2 construct: also called hCD63 EC loop 2-hFc; human CD63 EC loop 2-Fc
T2 sequence (chain, as listed by the source limits assumed): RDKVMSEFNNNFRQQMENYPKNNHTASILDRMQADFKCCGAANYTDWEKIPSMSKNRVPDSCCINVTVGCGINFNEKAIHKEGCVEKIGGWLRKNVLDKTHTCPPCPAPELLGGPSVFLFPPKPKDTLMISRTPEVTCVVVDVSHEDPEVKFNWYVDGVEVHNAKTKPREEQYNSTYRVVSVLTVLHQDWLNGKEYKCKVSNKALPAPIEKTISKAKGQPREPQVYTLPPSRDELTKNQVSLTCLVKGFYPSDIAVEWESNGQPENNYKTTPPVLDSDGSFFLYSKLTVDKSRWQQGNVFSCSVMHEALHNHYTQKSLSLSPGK
As to the kind of experiment: SPR Biacore, mAb captured, 37C. The protocol: (§3) Equilibrium dissociation constants (KD) for different CD63 (EC2) loop reagents binding to purified anti-CD63 monoclonal antibodies were determined using a real-time surface plasmon resonance based Biacore T200 biosensor or Biacore 2000 biosensor. All binding studies were performed in 10 mM HEPES, 150 mM NaCl, 3 mM EDTA, and 0.05% v/v Surfactant Tween-20, pH 7.4 (HBS-ET) running buffer at 25° C. and 37° C. The Biacore CMS sensor chip surface was first derivatized by amine coupling with either a rabbit anti-mouse Fc specific polyclonal antibody (GE Healthcare, Cat #BR100838) or an anti-human Fab kit (GE Healthcare, Cat #28958325) to capture anti-CD63 monoclonal antibodies. […] The association rate (Kₐ) and dissociation rate (kd) were determined by fitting the real-time binding sensorgrams to a 1:1 binding model with mass transport limitation using Scrubber 2.0c curve-fitting software. Binding dissociation equilibrium constant (KD) and dissociative half-life (t½) were calculated from the kinetic rates as: […]
(§4) Binding kinetics parameters for human CD63 EC loop 2 protein binding to different anti-CD63 monoclonal antibodies of the invention at 25° C. and 37° C. are shown in Tables 6 through 9.
Consider B1, for which the “100 nM Ag Bound (RU)” value is 342 RU, the Kd (usually the constant that tells how readily two partners part at equilibrium) was 0.045 nM, the koff (usually the first-order rate constant of dissociation) was 1.91e-05 s⁻¹ and the kon (usually a measure of how fast the partners come together) worked out at 425000 M⁻¹ s⁻¹. In addition, the t1/2 came out at 603 min.
The corresponding values for B2 are 338 RU, 0.104 nM, 4.96e-05 s⁻¹, 482000 M⁻¹ s⁻¹ and 233 min.
With B3, the “100 nM Ag Bound (RU)” value worked out at 358 RU, the Kd was 1.05 nM, the koff is 0.000682 s⁻¹ and the kon was 647000 M⁻¹ s⁻¹. For the same molecule, the t1/2 was determined as 17 min.
The like results for B4 were, in that order, 156 RU, 7.92 nM, 0.00457 s⁻¹, 577000 M⁻¹ s⁻¹ and 3 min.
For B5, the “100 nM Ag Bound (RU)” value is 116 RU, the Kd stood at 14.5 nM, the koff was 0.0188 s⁻¹ and the kon amounted to 1.29e+06 M⁻¹ s⁻¹. The t1/2 was 1 min.

A further experiment concerns the target T3, recombinant human CD63 extracellular loop 2 expressed with a C-terminal Myc-Myc-hexahistidine (human).
T3 construct: also called hCD63 EC loop 2-MMH; human CD63 EC loop 2-MMH
As to the kind of experiment: SPR Biacore, mAb captured, 37C. The method, then: as §3, §4
A general note: In SPR one partner is held on a chip, and binding of the other changes the refractive index at the surface.
Consider B1, for which the “100 nM Ag Bound (RU)” value turned out to be 74 RU, the Kd is 145 nM, the koff came to 0.0192 s⁻¹ and the kon is 132000 M⁻¹ s⁻¹. In addition, the t1/2 came out at 0.6 min.
The like results for B2 were, in that order, 81 RU, 124 nM, 0.0198 s⁻¹, 160000 M⁻¹ s⁻¹ and 0.6 min.
The corresponding values for B3 are 30 RU, 12300 nM, 0.0814 s⁻¹, 6600 M⁻¹ s⁻¹ and 0.1 min.
For B4, the “100 nM Ag Bound (RU)” value is 3 RU.
Regarding B5, the “100 nM Ag Bound (RU)” value was determined as 3 RU, the Kd came out at 1620 nM, the koff stood at 0.128 s⁻¹ and the kon was determined as 79400 M⁻¹ s⁻¹. Also, the t1/2 worked out at 0.1 min.

In the next experiment the target is T1, human CD63. The experiment is described as follows: ECL, LNCAP cells. The method, then:
as §1, §2
As to B1, the EC50 worked out at 1.9 nM and the “binding ratio at 3.7 nM vs NIH3T3” value is 11 fold.
The like results for B2 were, in that order, 5.1 nM and 6 fold.
The like results for B3 were, in that order, 3.6 nM and 4 fold.
As for B4, the EC50 came out at 6.7 nM and the “binding ratio at 3.7 nM vs NIH3T3” value is 8 fold.
As to B5, the EC50 worked out at 55 nM and the “binding ratio at 3.7 nM vs NIH3T3” value turned out to be 5 fold.

Another experiment has as its target T1, human CD63. The experiment is described as follows: ECL, NIH3T3/hCD63 cells. The method, then: as §1, §2
As to B1, the EC50 was 0.94 nM and the “binding ratio at 3.7 nM vs NIH3T3” value was found to be 266 fold.
Regarding B2, the response was half-maximal at 0.93 nM (EC50) and the “binding ratio at 3.7 nM vs NIH3T3” value is 168 fold.
Consider B3, for which the EC50 worked out at 1.5 nM and the “binding ratio at 3.7 nM vs NIH3T3” value is 87 fold.
On to B4, for which the EC50 was 2.5 nM and the “binding ratio at 3.7 nM vs NIH3T3” value amounted to 227 fold.
The corresponding values for B5 are 5 nM and 212 fold.

Another experiment deals with T2, recombinant human CD63 extracellular …. As to the kind of experiment: SPR Biacore, mAb captured, 25C. The protocol:
as §3, §4
With B1, the “100 nM Ag Bound (RU)” value worked out at 291 RU, the Kd is 0.149 nM, the koff is 6.2e-05 s⁻¹ and the kon was found to be 417000 M⁻¹ s⁻¹. In addition, the t1/2 was 186 min.
The corresponding values for B2 are 275 RU, 0.209 nM, 8.99e-05 s⁻¹, 430000 M⁻¹ s⁻¹ and 128 min.
The like results for B3 were, in that order, 304 RU, 0.401 nM, 0.000257 s⁻¹, 641000 M⁻¹ s⁻¹ and 45 min.
The corresponding values for B4 are 194 RU, 2 nM, 0.000728 s⁻¹, 364000 M⁻¹ s⁻¹ and 16 min.
On to B5, for which the “100 nM Ag Bound (RU)” value amounted to 198 RU, the Kd came to 10.1 nM, the koff is 0.00555 s⁻¹ and the kon was determined as 552000 M⁻¹ s⁻¹. Besides, the t1/2 was found to be 2 min.

In the next experiment the target is T3, recombinant human CD63 extracellular …. The experiment is described as follows: SPR Biacore, mAb captured, 25C. The protocol:
as §3, §4
For the molecule B1, the “100 nM Ag Bound (RU)” value was 106 RU, the Kd came out at 19.9 nM, the koff was determined as 0.00371 s⁻¹ and the kon stood at 186000 M⁻¹ s⁻¹. Also, the t1/2 was 3.1 min.
With B2, the “100 nM Ag Bound (RU)” value came to 94 RU, the dissociation constant Kd was determined as 30.6 nM, the koff is 0.00591 s⁻¹ and the kon is 193000 M⁻¹ s⁻¹. In addition, the t1/2 was 2 min.
Consider B3, for which the “100 nM Ag Bound (RU)” value worked out at 53 RU, the Kd was 213 nM, the koff was 0.0267 s⁻¹ and the kon stood at 125000 M⁻¹ s⁻¹. The t1/2 was 0.4 min.
Regarding B4, the “100 nM Ag Bound (RU)” value stood at 10 RU.
Still for that read-out and setting: the figure for B5 is 8 RU.
